Columns and labels:
[1] = target: Mucin I: Crude mucin, type II from porcine stomach (Sigma)
[2] = target: Mucin I: Crude mucin, type II from porcine stomach (Sigma); remark: listed apart in the source
[3] = target: Mucin I: Crude mucin, type II from porcine stomach (Sigma); remark: listed apart in the source

| viscosity, rheometer, comparison of four TFF2 peptides (7.05 mg in 2 ml 10% mucin I) [1] | Elastic modules G' (Pa) at 1 Hz, oscillatory measurement [2] | viscosity, rheometer, constant rate (stress versus shear rate) [3] | Substance |
| --- | --- | --- | --- |
| 0.54 Pa s |  |  | non-glycosylated recombinant human Asn99-TFF2 (from UniProt Q03403) (ligand) |
| 0.8 Pa s | 17 Pa | 10 factor | glycosylated recombinant human Asn99-TFF2 (from UniProt Q03403) (ligand) |

From patent US20060293221A1
